This data set deals with the molecule itself. Briefly: crystal structure; PaFabB C161A lacking the His-tag (9-23 mg/mL) in 20 mM Tris-HCl, 150 mM NaCl, 1 mM DTT, pH 7.4; sitting drop, 20°C; 0.2 M sodium iodide, 0.1 M Bis-Tris propane pH 7.5, PEG 3350, ethylene glycol; space group C 2 2 21, 2 protein molecules in the asymmetric unit; 1.3 Å.

B1: Pseudomonas aeruginosa FabB C161A (3-oxoacyl-[acyl-carrier-protein] synthase 1), without His-tag (enzyme)
chain: MRRVVITGLGIVSCLGNDKDTVSANLRAGRPGIRFNPSYAEMGLRSHVSGSVDLNLEELIDRKVFRFMGDAAAYAYLAMEQAIKDSGLTPEQISNPRTGLIAGSGGASTLNQMEAIDTLREKGVKRIGPYRVTRTMGSTVSACLATPFQIKGVNYSISSAAATSAHCIGQAMEQIQLGKQDVVFAGGGEEEHWSQSCLFDAMGALSTQYNETPEKASRAYDAKRDGFVIAGGGGMVVVEELEHALKRGAKIYAEIVGYGATSDGYDMVAPSGEGAIRCMQQALATVDAPIDYLNTHGTSTPVGDVAEIRGVREVFGDKAPAISSTKSLSGHSLGAAGVHEAIYCLLMMEGGFIAGSANIDELDPEVADLPILRETRENAKLDTVMSNSFGFGGTNATLVLKRWQG
notes: FabB (3-oxoacyl-[acyl-carrier-protein] synthase 1) of P. aeruginosa PA14, ORF PA14_43690, with the point mutation C161A; gene synthesised and cloned NdeI/BamHI into pET-28a(+)-TEV; 808 protein residues modelled in the dimer; also called PaFabB C161A; cleaved PaFabB C161A; not shown: His6, N-terminal, cleaved
In general, stoichiometry N refers to the number of molecules, sites or subunits per partner or assembly. B1: the “stoichiometry N” value turned out to be 2.

The values above are taken from publication PMC8804906, “Crystal structure of Pseudomonas aeruginosa FabB C161A, a template for structure-based design for new antibiotics” (F1000Research, 2021).
